# Test results: article PMC11743138, “Structural basis for the interaction between the Drosophila RTK Sevenless (dROS1) and the GPCR BOSS” (Nature Communications, 2025)
# T1: dROS1 (Sevenless) extracellular region construct 2-3 (D. melanogaster, UniProt P13368 440-931)
# T1 chain: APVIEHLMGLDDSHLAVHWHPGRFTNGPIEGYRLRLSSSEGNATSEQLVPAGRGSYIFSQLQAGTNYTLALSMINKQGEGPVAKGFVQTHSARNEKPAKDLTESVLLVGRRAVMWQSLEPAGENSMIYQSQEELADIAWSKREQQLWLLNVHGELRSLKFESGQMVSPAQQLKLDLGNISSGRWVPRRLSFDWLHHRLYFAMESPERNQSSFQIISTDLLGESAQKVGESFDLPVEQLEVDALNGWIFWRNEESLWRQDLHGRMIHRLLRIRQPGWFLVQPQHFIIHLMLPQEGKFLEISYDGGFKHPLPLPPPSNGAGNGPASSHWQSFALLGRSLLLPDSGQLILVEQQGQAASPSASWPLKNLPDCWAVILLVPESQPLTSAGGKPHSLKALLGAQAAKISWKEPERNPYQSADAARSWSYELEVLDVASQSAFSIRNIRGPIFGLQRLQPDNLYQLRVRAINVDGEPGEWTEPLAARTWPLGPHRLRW
# T2: dROS1 (Sevenless) extracellular region construct 1-4, his-tagged (D. melanogaster, UniProt P13368 126-1298)
# T2 construct: Sevenless (dROS1), D. melanogaster, N-terminus of the ECR to the fourth FNIII domain, residues 126-1298; His tag is said to be kept for the HDX-MS experiment (immobilised on Ni resin); Factor Xa cut site after the His tag; also called dROS1 (1-4); N-terminal region of dROS1; source: Trichoplusia ni (Hi5) cells, baculovirus, purified from the medium (Ni resin, SEC); not shown: His8, N-terminal, …
# T2 sequence (looked up): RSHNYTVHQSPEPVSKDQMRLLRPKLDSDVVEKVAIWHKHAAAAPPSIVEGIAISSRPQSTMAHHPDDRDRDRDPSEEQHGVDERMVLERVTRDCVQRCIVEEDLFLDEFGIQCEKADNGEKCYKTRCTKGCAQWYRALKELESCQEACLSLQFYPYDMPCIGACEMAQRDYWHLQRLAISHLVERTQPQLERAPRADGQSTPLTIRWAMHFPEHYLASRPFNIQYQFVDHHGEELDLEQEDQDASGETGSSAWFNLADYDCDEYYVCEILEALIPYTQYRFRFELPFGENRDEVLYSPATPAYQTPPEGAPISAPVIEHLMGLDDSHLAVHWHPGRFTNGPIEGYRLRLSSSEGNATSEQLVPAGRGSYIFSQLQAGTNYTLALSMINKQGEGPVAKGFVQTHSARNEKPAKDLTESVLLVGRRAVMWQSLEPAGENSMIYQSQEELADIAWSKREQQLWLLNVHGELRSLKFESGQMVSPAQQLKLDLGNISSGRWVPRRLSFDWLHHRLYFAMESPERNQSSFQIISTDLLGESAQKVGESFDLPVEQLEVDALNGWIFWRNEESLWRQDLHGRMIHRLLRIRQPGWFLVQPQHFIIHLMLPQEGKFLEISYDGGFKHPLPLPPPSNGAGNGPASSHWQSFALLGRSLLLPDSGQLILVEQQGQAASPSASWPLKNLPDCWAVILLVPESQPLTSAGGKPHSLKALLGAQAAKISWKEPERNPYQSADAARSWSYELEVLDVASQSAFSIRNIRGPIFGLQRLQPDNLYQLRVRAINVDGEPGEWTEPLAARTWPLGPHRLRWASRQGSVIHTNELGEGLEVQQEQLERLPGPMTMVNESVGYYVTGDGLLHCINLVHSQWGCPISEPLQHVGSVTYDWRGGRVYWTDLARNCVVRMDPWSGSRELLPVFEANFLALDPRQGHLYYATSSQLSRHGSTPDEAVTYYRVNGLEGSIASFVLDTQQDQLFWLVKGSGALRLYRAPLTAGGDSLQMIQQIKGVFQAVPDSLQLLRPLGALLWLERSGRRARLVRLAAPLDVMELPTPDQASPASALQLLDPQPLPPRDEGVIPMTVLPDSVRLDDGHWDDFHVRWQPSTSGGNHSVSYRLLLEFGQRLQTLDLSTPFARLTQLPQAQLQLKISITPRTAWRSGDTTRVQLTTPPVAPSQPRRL
# Key:
# [1] = biological target: T1, dROS1 (Sevenless) extracellular region …; assay: SPR
# [2] = biological target: T2, dROS1 (Sevenless) extracellular region …; assay: SPR; BIAcore T200; dROS1 constructs covalently coupled (NHS/EDC) to a CM5 chip, BOSS ECR proteins flowed over at 10 µL/min for 180 s; 20 mM HEPES pH 7.5, 100 mM NaCl; plateau RU against BOSS concentration fitted to a single-site specific binding model; settings: both partners purified
# [3] = biological target: T3, dROS1 (Sevenless) full extracellular region, construct 1-9 (D. melanogaster, UniProt P13368 126-2113); assay: as above; settings: both partners purified
# T3 construct: Sevenless (dROS1), D. melanogaster, extracellular region with FNIII domains 1 to 9, residues 126-2113; A Factor Xa cut site stands between the N-terminal octa-histidine tag and the protein; Coupled covalently to a CM5 chip in SPR; also called dROS1 1-9; full ECR of dROS1; source: Trichoplusia ni (Hi5) cells, baculovirus, purified from the medium (Ni resin, SEC)
binder,measurement,setting,value
"BOSS (Bride Of Sevenless) extracellular region, His tag cleaved (domain or fragment, D. melanogaster, UniProt P22815 102-510, looked up, Bride of sevenless (BOSS), D. melanogaster, extracellular region, residues 102-510; also called BOSS ECR; BOSSWT; source: Trichoplusia ni (Hi5) cells, baculovirus, purified from the medium (Ni resin, SEC; Factor Xa cleavage, Ni flow-through, SEC); not shown: His8, N-terminal, cleaved) GTTASLVPEICLNGLQLTVNSADEGTVIRKQEEFVKILEGDVVLSVLTKDPDSALFVINRVNQANLIMADFEIGIRAISIDNASLAENLLIQEVQFLQQCTTYSMGIFVDWELYKQLESVIKDLEYNIWPIPGTRAHLFPKVAHLLHQMPWGEKIASVEIATETLEMYNEFMEAARQEHMCLMHFKSDDNVYIMFGNKLASHFKENGTLFSVPTDRTDDEFLADLPNRAFVLMENEIDLSTAVELDATPTALDEILIGKSVLPSRVLSFAGSIIDLMNWLRGSLSKHCKRGEEHDLYVLESCFNFLNFIEDWRTSEYRQAHDTAEILSLLLMRKLGTAMNFQMYQKKVLTLDKITGESRTELREIASQNFVTNVTTYYHYNRDNHTSLELKTKFGQVFNCQYSAGDNRR",Kd,[1],5 µM
same,Kd,[2],3 to 5 µM
same,Kd,[3],4.4 µM
